Source: patent US20240108738A1 (Bicycle, published 2024)
Numbered stars: 1 amine (or outer) side, 2 acyl side, 3 side chain; on linkers, the order of the positions; unused ones are H or OH. Bridge positions count the residues as written; N and C are the ends. Square brackets hold non-standard residues; d marks the D form. Ends that are not written are not given here. TATA = O=C(CC[*:1])N1CN(C(=O)CC[*:2])CN(C(=O)CC[*:3])C1; Trp(5-F) = N[C@@H](Cc1c[nH]c2ccc(F)cc12)C(=O)O; Trp(6-F) = N[C@@H](Cc1c[nH]c2cc(F)ccc12)C(=O)O; Trp(6-Me) = Cc1ccc2c(C[C@H](N)C(=O)O)c[nH]c2c1; Trp(7-Me) = Cc1cccc2c(C[C@H](N)C(=O)O)c[nH]c12; Trp(2-Me) = Cc1[nH]c2ccccc2c1C[C@H](N)C(=O)O; Ala(2-furyl) = N[C@@H](Cc1ccco1)C(=O)O; Nva(3-Et) = CCC(CC)[C@H](N)C(=O)O; aIle = CC[C@@H](C)[C@H](N)C(=O)O; Cba = N[C@@H](CC1CCC1)C(=O)O; Pen = CC(C)(S)[C@H](N)C(=O)O; Pip = O=C(O)[C@@H]1CCCCN1; Nle = CCCC[C@H](N)C(=O)O; Nva = CCC[C@H](N)C(=O)O; Dap = NC[C@H](N)C(=O)O; Aib = CC(C)(N)C(=O)O; GABA = NCCCC(=O)O

B1: BCY19723 (peptide)
peptide: ACDLTTHNCQ[Trp(7-Me)]GICA-NH2
modifications: linker 2-9-14 via TATA; N-terminus assumed
SMILES: CC[C@H](C)[C@@H]1NC(=O)CNC(=O)[C@H](Cc2c[nH]c3c(C)cccc23)NC(=O)[C@H](CCC(N)=O)NC(=O)[C@@H]2CSCCC(=O)N3CN(CN(C3)C(=O)CCSC[C@@H](C(=O)N[C@@H](C)C(N)=O)NC1=O)C(=O)CCSC[C@H](NC(=O)[C@H](C)N)C(=O)N[C@@H](CC(=O)O)C(=O)N[C@@H](CC(C)C)C(=O)N[C@@H]([C@@H](C)O)C(=O)N[C@@H]([C@@H](C)O)C(=O)N[C@@H](Cc1c[nH]cn1)C(=O)N[C@@H](CC(N)=O)C(=O)N2
notes: scaffold TATA
B2: BCY19734 (peptide)
peptide: ACDLTTHNCQWG[Nle]CA-NH2
modifications: linker 2-9-14 via TATA; N-terminus assumed
SMILES: CCCC[C@@H]1NC(=O)CNC(=O)[C@H](Cc2c[nH]c3ccccc23)NC(=O)[C@H](CCC(N)=O)NC(=O)[C@@H]2CSCCC(=O)N3CN(CN(C3)C(=O)CCSC[C@@H](C(=O)N[C@@H](C)C(N)=O)NC1=O)C(=O)CCSC[C@H](NC(=O)[C@H](C)N)C(=O)N[C@@H](CC(=O)O)C(=O)N[C@@H](CC(C)C)C(=O)N[C@@H]([C@@H](C)O)C(=O)N[C@@H]([C@@H](C)O)C(=O)N[C@@H](Cc1c[nH]cn1)C(=O)N[C@@H](CC(N)=O)C(=O)N2
notes: scaffold TATA
B3: BCY19722 (peptide)
peptide: ACDLTTHNCQ[Trp(6-Me)]GICA-NH2
modifications: linker 2-9-14 via TATA; N-terminus assumed
SMILES: CC[C@H](C)[C@@H]1NC(=O)CNC(=O)[C@H](Cc2c[nH]c3cc(C)ccc23)NC(=O)[C@H](CCC(N)=O)NC(=O)[C@@H]2CSCCC(=O)N3CN(CN(C3)C(=O)CCSC[C@@H](C(=O)N[C@@H](C)C(N)=O)NC1=O)C(=O)CCSC[C@H](NC(=O)[C@H](C)N)C(=O)N[C@@H](CC(=O)O)C(=O)N[C@@H](CC(C)C)C(=O)N[C@@H]([C@@H](C)O)C(=O)N[C@@H]([C@@H](C)O)C(=O)N[C@@H](Cc1c[nH]cn1)C(=O)N[C@@H](CC(N)=O)C(=O)N2
notes: scaffold TATA
B4: BCY19706 (peptide)
peptide: ACNLQAPCMLTGK[aIle]CA-NH2
modifications: linker 2-8-15 via TATA; N-terminus assumed
SMILES: CC[C@@H](C)[C@@H]1NC(=O)[C@H](CCCCN)NC(=O)CNC(=O)[C@H]([C@@H](C)O)NC(=O)[C@H](CC(C)C)NC(=O)[C@H](CCSC)NC(=O)[C@@H]2CSCCC(=O)N3CN(CN(C3)C(=O)CCSC[C@@H](C(=O)N[C@@H](C)C(N)=O)NC1=O)C(=O)CCSC[C@H](NC(=O)[C@H](C)N)C(=O)N[C@@H](CC(N)=O)C(=O)N[C@@H](CC(C)C)C(=O)N[C@@H](CCC(N)=O)C(=O)N[C@@H](C)C(=O)N1CCC[C@H]1C(=O)N2
notes: scaffold TATA
B5: BCY19733 (peptide)
peptide: ACDLTTHNCQWG[Nva(3-Et)]CA-NH2
modifications: linker 2-9-14 via TATA; N-terminus assumed
SMILES: CCC(CC)[C@@H]1NC(=O)CNC(=O)[C@H](Cc2c[nH]c3ccccc23)NC(=O)[C@H](CCC(N)=O)NC(=O)[C@@H]2CSCCC(=O)N3CN(CN(C3)C(=O)CCSC[C@@H](C(=O)N[C@@H](C)C(N)=O)NC1=O)C(=O)CCSC[C@H](NC(=O)[C@H](C)N)C(=O)N[C@@H](CC(=O)O)C(=O)N[C@@H](CC(C)C)C(=O)N[C@@H]([C@@H](C)O)C(=O)N[C@@H]([C@@H](C)O)C(=O)N[C@@H](Cc1c[nH]cn1)C(=O)N[C@@H](CC(N)=O)C(=O)N2
notes: scaffold TATA
B6: BCY19697 (peptide)
peptide: [Dap]CNLQAPCMLTGKVCA-NH2
modifications: linker 2-8-15 via TATA; N-terminus assumed
SMILES: CSCC[C@@H]1NC(=O)[C@@H]2CSCCC(=O)N3CN(CN(C3)C(=O)CCSC[C@H](NC(=O)[C@@H](N)CN)C(=O)N[C@@H](CC(N)=O)C(=O)N[C@@H](CC(C)C)C(=O)N[C@@H](CCC(N)=O)C(=O)N[C@@H](C)C(=O)N3CCC[C@H]3C(=O)N2)C(=O)CCSC[C@@H](C(=O)N[C@@H](C)C(N)=O)NC(=O)[C@H](C(C)C)NC(=O)[C@H](CCCCN)NC(=O)CNC(=O)[C@H]([C@@H](C)O)NC(=O)[C@H](CC(C)C)NC1=O
notes: scaffold TATA
B7: BCY19732 (peptide)
peptide: ACDLTT[Ala(2-furyl)]NCQWGICA-NH2
modifications: linker 2-9-14 via TATA; N-terminus assumed
SMILES: CC[C@H](C)[C@@H]1NC(=O)CNC(=O)[C@H](Cc2c[nH]c3ccccc23)NC(=O)[C@H](CCC(N)=O)NC(=O)[C@@H]2CSCCC(=O)N3CN(CN(C3)C(=O)CCSC[C@@H](C(=O)N[C@@H](C)C(N)=O)NC1=O)C(=O)CCSC[C@H](NC(=O)[C@H](C)N)C(=O)N[C@@H](CC(=O)O)C(=O)N[C@@H](CC(C)C)C(=O)N[C@@H]([C@@H](C)O)C(=O)N[C@@H]([C@@H](C)O)C(=O)N[C@@H](Cc1ccco1)C(=O)N[C@@H](CC(N)=O)C(=O)N2
notes: scaffold TATA
B8: BCY19707 (peptide)
peptide: ACNLQAPCMLTGK[Nva(3-Et)]CA-NH2
modifications: linker 2-8-15 via TATA; N-terminus assumed
SMILES: CCC(CC)[C@@H]1NC(=O)[C@H](CCCCN)NC(=O)CNC(=O)[C@H]([C@@H](C)O)NC(=O)[C@H](CC(C)C)NC(=O)[C@H](CCSC)NC(=O)[C@@H]2CSCCC(=O)N3CN(CN(C3)C(=O)CCSC[C@@H](C(=O)N[C@@H](C)C(N)=O)NC1=O)C(=O)CCSC[C@H](NC(=O)[C@H](C)N)C(=O)N[C@@H](CC(N)=O)C(=O)N[C@@H](CC(C)C)C(=O)N[C@@H](CCC(N)=O)C(=O)N[C@@H](C)C(=O)N1CCC[C@H]1C(=O)N2
notes: scaffold TATA
B9: BCY19704 (peptide)
peptide: ACNLQAPCM[Nva]TGKVCA-NH2
modifications: linker 2-8-15 via TATA; N-terminus assumed
SMILES: CCC[C@@H]1NC(=O)[C@H](CCSC)NC(=O)[C@@H]2CSCCC(=O)N3CN(CN(C3)C(=O)CCSC[C@@H](C(=O)N[C@@H](C)C(N)=O)NC(=O)[C@H](C(C)C)NC(=O)[C@H](CCCCN)NC(=O)CNC(=O)[C@H]([C@@H](C)O)NC1=O)C(=O)CCSC[C@H](NC(=O)[C@H](C)N)C(=O)N[C@@H](CC(N)=O)C(=O)N[C@@H](CC(C)C)C(=O)N[C@@H](CCC(N)=O)C(=O)N[C@@H](C)C(=O)N1CCC[C@H]1C(=O)N2
notes: scaffold TATA
B10: BCY19701 (peptide)
peptide: ACNLQA[Pip]CMLTGKVCA-NH2
modifications: linker 2-8-15 via TATA; N-terminus assumed
SMILES: CSCC[C@@H]1NC(=O)[C@@H]2CSCCC(=O)N3CN(CN(C3)C(=O)CCSC[C@@H](C(=O)N[C@@H](C)C(N)=O)NC(=O)[C@H](C(C)C)NC(=O)[C@H](CCCCN)NC(=O)CNC(=O)[C@H]([C@@H](C)O)NC(=O)[C@H](CC(C)C)NC1=O)C(=O)CCSC[C@H](NC(=O)[C@H](C)N)C(=O)N[C@@H](CC(N)=O)C(=O)N[C@@H](CC(C)C)C(=O)N[C@@H](CCC(N)=O)C(=O)N[C@@H](C)C(=O)N1CCCC[C@H]1C(=O)N2
notes: scaffold TATA
B11: BCY19710 (peptide)
peptide: ACNLQA[Nva]CMLTGKVCA-NH2
modifications: linker 2-8-15 via TATA; N-terminus assumed
SMILES: CCC[C@@H]1NC(=O)[C@H](C)NC(=O)[C@H](CCC(N)=O)NC(=O)[C@H](CC(C)C)NC(=O)[C@H](CC(N)=O)NC(=O)[C@@H](NC(=O)[C@H](C)N)CSCCC(=O)N2CN3CN(C2)C(=O)CCSC[C@@H](C(=O)N[C@@H](C)C(N)=O)NC(=O)[C@H](C(C)C)NC(=O)[C@H](CCCCN)NC(=O)CNC(=O)[C@H]([C@@H](C)O)NC(=O)[C@H](CC(C)C)NC(=O)[C@H](CCSC)NC(=O)[C@H](CSCCC3=O)NC1=O
notes: scaffold TATA
B12: BCY19689 (peptide)
peptide: Ac-[Pen]Y[Cba]PDYLC[dA]DEYC-NH2
modifications: linker 1-8-13 via TATA
SMILES: CC(=O)N[C@@H]1C(=O)N[C@@H](Cc2ccc(O)cc2)C(=O)N[C@@H](CC2CCC2)C(=O)N2CCC[C@H]2C(=O)N[C@@H](CC(=O)O)C(=O)N[C@@H](Cc2ccc(O)cc2)C(=O)N[C@@H](CC(C)C)C(=O)N[C@H]2CSCCC(=O)N3CN(CN(C3)C(=O)CCSC1(C)C)C(=O)CCSC[C@@H](C(N)=O)NC(=O)[C@H](Cc1ccc(O)cc1)NC(=O)[C@H](CCC(=O)O)NC(=O)[C@H](CC(=O)O)NC(=O)[C@@H](C)NC2=O
notes: scaffold TATA

Molecular target: T1, Human NKp46 Fc tag (Acro Biosystems, NC1-H5257) (human, UniProt O76036 22-255)
T1 construct: bought; also called Fc-tagged human NKp46
T1 sequence (O76036 22-255 limits assumed): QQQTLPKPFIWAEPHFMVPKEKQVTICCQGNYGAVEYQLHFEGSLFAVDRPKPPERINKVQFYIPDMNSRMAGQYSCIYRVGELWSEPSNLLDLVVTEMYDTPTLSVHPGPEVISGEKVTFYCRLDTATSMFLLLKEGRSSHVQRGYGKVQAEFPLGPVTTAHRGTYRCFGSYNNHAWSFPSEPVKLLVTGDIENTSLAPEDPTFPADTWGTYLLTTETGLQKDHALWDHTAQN
Assay: SPR Method 1 and/or 2
In short: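 Fc-tagged human NKp46 captured on anti-human IgG surface (500–1000 RU); compounds run in PBS-P+ with 2% DMSO at 25 °C, 50 μL/min, 60 s association, 400 s dissociation. Double-referenced, DMSO-corrected; KD from steady-state 1:1 fit, kinetic constants from kinetic 1:1 fit where appropriate.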

Binder | Kd [µM]
B1 | 2.27
Ac-CY[Cba]PDYL[Pen][dA]DEYC-NH2 (linker 1-8-13 via TATA, scaffold TATA) [BCY19690] | 0.019
B2 | 0.611
B3 | 1.46
ACDLTTHNCQ[Trp(6-F)]GICA-NH2 (linker 2-9-14 via TATA, scaffold TATA) [BCY19724] | 1.39
B4 | 1.2
B5 | 0.354
B6 | 3.73
Ac-[dC]Y[Cba]PDYLC[dA]DEYC-NH2 (linker 1-8-13 via TATA, scaffold TATA) [BCY19693] | 0.017
ACDLTTHNCQ[Trp(5-F)]GICA-NH2 (linker 2-9-14 via TATA, scaffold TATA) [BCY19725] | 0.457
B7 | 0.964
B8 | 1.05
B9 | 1.62
[GABA]CNLQAPCMLTGKVCA-NH2 (linker 2-8-15 via TATA, scaffold TATA) [BCY19699] | 2.61
ACDLTTHNCQ[Trp(2-Me)]GICA-NH2 (linker 2-9-14 via TATA, scaffold TATA) [BCY19721] | 0.374
ACDLTTHNCQWGIC[Aib]-NH2 (linker 2-9-14 via TATA, scaffold TATA) [BCY19717] | 0.598
B10 | 4.03
B11 | 2.36
B12 | 0.016
ACNLQAPCM[Nle]TGKVCA-NH2 (linker 2-8-15 via TATA, scaffold TATA) [BCY19703] | 1.69
